Measurements published in US5457182.

Tests used:
[1] = target: bovine brain calcineurin (bovine) (UniProt P48452)
[2] = target: N-succinyl-Ala-Leu-Pro-Phe-p-nitroanilide

Substance	IC50 for inhibition of CaN phosphatase activity (with FK-506, CaM, Ca2+, Mg2+) [1]	PPIase activity [2]
FKBP12.6 (bovine, purified from calf brain cytosol)	16 nM	–
cyclophilin (enzyme)	–	25 fold
recombinant human FKBP12 (from UniProt P62942)	9.9 nM	–
